Results reported in the MegaScale stability set (Tsuboyama et al. 2023).

B1: r16_88_TrROS_Hall (parent)
chain: EVIELKIKFKTPEQREKLKEIAKKLNAEVVEEKDGEVIIRFKTPEQAERALKEAEKLGAEVEL

Variants of: B1
Experiment: folding stability dG (cDNA display proteolysis); higher = more stable
Conditions: PBS, room temperature

In order of falling “folding stability dG” value:
1. EVIELKIKFKTPEQREKLKEIAWKLNAEVVEEKDGEVIIRFKTPEQAERALKEAEKLGAEVEL [K23W]  4.8 kcal/mol
2. EVIELKIKFKTPEQREKLKEYAKKLNAEVVEEKDGEVIIRFKTPEQAERALKEAEKLGAEVEL [I21Y]  4.78 kcal/mol
3. EVIELKIKFKTPEQREKLKEIYKKLNAEVVEEKDGEVIIRFKTPEQAERALKEAEKLGAEVEL [A22Y]  4.74 kcal/mol
4. EVIELKIKFKTPEQREKLKEIWKKLNAEVVEEKDGEVIIRFKTPEQAERALKEAEKLGAEVEL [A22W]  4.68 kcal/mol
5. EVIELKIKFKTPEQREKLKEIFKKLNAEVVEEKDGEVIIRFKTPEQAERALKEAEKLGAEVEL [A22F]  4.65 kcal/mol
6. EVIELKIKFKTPEQREKLKEIGKKLNAEVVEEKDGEVIIRFKTPEQAERALKEAEKLGAEVEL [A22G]  4.64 kcal/mol
7. EVIELKIKFKTPEQREKLKEIATKLNAEVVEEKDGEVIIRFKTPEQAERALKEAEKLGAEVEL [K23T]  4.63 kcal/mol
8. EVIELKIKFKTPEQREKLKEIAVKLNAEVVEEKDGEVIIRFKTPEQAERALKEAEKLGAEVEL [K23V]  4.62 kcal/mol
9. EVIELKIKFKTPEQREKLKEILKKLNAEVVEEKDGEVIIRFKTPEQAERALKEAEKLGAEVEL [A22L]  4.62 kcal/mol
10. EVIELKIKFKTPEQREKLKEIACKLNAEVVEEKDGEVIIRFKTPEQAERALKEAEKLGAEVEL [K23C]  4.61 kcal/mol
11. EVIELKIKFKTPEQREKLKEIAIKLNAEVVEEKDGEVIIRFKTPEQAERALKEAEKLGAEVEL [K23I]  4.56 kcal/mol
12. EVIELKIKFKTPEQREKLKEIASKLNAEVVEEKDGEVIIRFKTPEQAERALKEAEKLGAEVEL [K23S]  4.55 kcal/mol
13. EVIELKIKFKTPEQREKLKEIAMKLNAEVVEEKDGEVIIRFKTPEQAERALKEAEKLGAEVEL [K23M]  4.54 kcal/mol
14. EVIELKIKFKTPEQREKLKEIALKLNAEVVEEKDGEVIIRFKTPEQAERALKEAEKLGAEVEL [K23L]  4.53 kcal/mol
15. EVIELKIKFKTPEQREKLKEIARKLNAEVVEEKDGEVIIRFKTPEQAERALKEAEKLGAEVEL [K23R]  4.48 kcal/mol
16. EVIELKIKFKTPEQREKLKEIAKKLGAEVVEEKDGEVIIRFKTPEQAERALKEAEKLGAEVEL [N26G]  4.43 kcal/mol
17. EVIELKIKFKTPEQREKLKEIAGKLNAEVVEEKDGEVIIRFKTPEQAERALKEAEKLGAEVEL [K23G]  4.43 kcal/mol
18. EVIELKIKFKTPEQREKLKEIAKKLAAEVVEEKDGEVIIRFKTPEQAERALKEAEKLGAEVEL [N26A]  4.41 kcal/mol
19. EVIELKIKFKTPEQREKLKEIQKKLNAEVVEEKDGEVIIRFKTPEQAERALKEAEKLGAEVEL [A22Q]  4.39 kcal/mol
20. EVIELKIKFKTPEQREKLKEIVKKLNAEVVEEKDGEVIIRFKTPEQAERALKEAEKLGAEVEL [A22V]  4.38 kcal/mol
21. EVIELKIKFKTPEQREKLKEIIKKLNAEVVEEKDGEVIIRFKTPEQAERALKEAEKLGAEVEL [A22I]  4.38 kcal/mol
22. EVIELKIKFKTPEQREKLKEIAEKLNAEVVEEKDGEVIIRFKTPEQAERALKEAEKLGAEVEL [K23E]  4.36 kcal/mol
23. EVIELKIKFKTPEQREKLKEITKKLNAEVVEEKDGEVIIRFKTPEQAERALKEAEKLGAEVEL [A22T]  4.36 kcal/mol
24. EVIELKIKFKTPEQREKLKEIMKKLNAEVVEEKDGEVIIRFKTPEQAERALKEAEKLGAEVEL [A22M]  4.35 kcal/mol
25. EVIELKIKFKTPEQREKLKEIANKLNAEVVEEKDGEVIIRFKTPEQAERALKEAEKLGAEVEL [K23N]  4.34 kcal/mol
26. EVIELKIKFKTPEQREKLKEVAKKLNAEVVEEKDGEVIIRFKTPEQAERALKEAEKLGAEVEL [I21V]  4.33 kcal/mol
27. EVIELKIKFKTPEQREKLKEIAKKLDAEVVEEKDGEVIIRFKTPEQAERALKEAEKLGAEVEL [N26D]  4.3 kcal/mol
28. EVIELKIKFKTPEQREKLKEIAHKLNAEVVEEKDGEVIIRFKTPEQAERALKEAEKLGAEVEL [K23H]  4.28 kcal/mol
29. EVIELKIKFKTPEQREKLKEIAQKLNAEVVEEKDGEVIIRFKTPEQAERALKEAEKLGAEVEL [K23Q]  4.27 kcal/mol
30. EVIELKIKFKTPEQREKLKEIAKKLFAEVVEEKDGEVIIRFKTPEQAERALKEAEKLGAEVEL [N26F]  4.24 kcal/mol
31. EVIELKIKFKTPEQREKLKEIAAKLNAEVVEEKDGEVIIRFKTPEQAERALKEAEKLGAEVEL [K23A]  4.21 kcal/mol
32. EVIELKIKFKTPEQREKLKEIHKKLNAEVVEEKDGEVIIRFKTPEQAERALKEAEKLGAEVEL [A22H]  4.21 kcal/mol
33. EVIELKIKFKTPEQREKLKEISKKLNAEVVEEKDGEVIIRFKTPEQAERALKEAEKLGAEVEL [A22S]  4.19 kcal/mol
34. EVIELKIKFKTPEQREKLKEIRKKLNAEVVEEKDGEVIIRFKTPEQAERALKEAEKLGAEVEL [A22R]  4.18 kcal/mol
35. EVIELKIKFKTPEQREKLKEICKKLNAEVVEEKDGEVIIRFKTPEQAERALKEAEKLGAEVEL [A22C]  4.17 kcal/mol
36. EVIELKIKFKTPEQREKLKEIEKKLNAEVVEEKDGEVIIRFKTPEQAERALKEAEKLGAEVEL [A22E]  4.17 kcal/mol
37. EVIELKIKFKTPEQREKLKEINKKLNAEVVEEKDGEVIIRFKTPEQAERALKEAEKLGAEVEL [A22N]  4.12 kcal/mol
38. EVIELKIKFKTPEQREKLKEIAKKLEAEVVEEKDGEVIIRFKTPEQAERALKEAEKLGAEVEL [N26E]  4.09 kcal/mol
39. EVIELKIKFKTPEQREKLKEIADKLNAEVVEEKDGEVIIRFKTPEQAERALKEAEKLGAEVEL [K23D]  4.09 kcal/mol
40. EVIELKIKFKTPEQREKLKEIAPKLNAEVVEEKDGEVIIRFKTPEQAERALKEAEKLGAEVEL [K23P]  3.93 kcal/mol
41. EVIELKIKFKTPEQREKLKEIKKKLNAEVVEEKDGEVIIRFKTPEQAERALKEAEKLGAEVEL [A22K]  3.78 kcal/mol
42. EVIELKIKFKTPEQREKLKEIPKKLNAEVVEEKDGEVIIRFKTPEQAERALKEAEKLGAEVEL [A22P]  3.7 kcal/mol
43. EVIELKIKFKTPEQREKLKEIDKKLNAEVVEEKDGEVIIRFKTPEQAERALKEAEKLGAEVEL [A22D]  2.91 kcal/mol
